Experiment [1] deals with HLA-A*03:01. Kind of experiment: IEDB peptide-MHC binding, purified MHC/competitive/radioactivity; filed as Kd, often an IC50 or EC50 that approximates it; ≥ and ≤ were set here for values at or beyond the usual limits of such assays. The note with it: source organism: Homo sapiens.
In experiment [2] the target is HLA-B*07:02. The experiment is described as above. Conditions: source organism: Homo sapiens.
For the next experiment, the target named is HLA-A*02:01. Description: IEDB peptide-MHC binding, purified MHC/competitive/radioactivity; ≥ and ≤ were set here for values at or beyond the usual limits of such assays. Conditions: source organism: Homo sapiens.
In the next experiment the target is HLA-A*01:01. Kind of experiment: IEDB peptide-MHC binding, purified MHC/competitive/radioactivity; filed as Kd, often an IC50 or EC50 that approximates it; ≥ and ≤ were set here for values at or beyond the usual limits of such assays.
Experiment [3] addresses HLA-A*03:01. Description: IEDB peptide-MHC binding, purified MHC/competitive/radioactivity; ≥ and ≤ were set here for values at or beyond the usual limits of such assays. Conditions: source organism: Homo sapiens.
Experiment [4] addresses HLA-B*07:02. Described as above. The note with it: source organism: Homo sapiens.

This is an account of results in the Immune Epitope Database (IEDB).

In general, Kd refers to the constant that tells how readily two partners part at equilibrium. Turning to EADPTGHSY, the Kd in the experiment with HLA-A*03:01 [1] and in the experiment with HLA-B*07:02 [2] was no less than 5 µM each time.
The IC50 is the concentration at which inhibition is half-maximal. Consider SLLPAIVEL, for which the IC50 with HLA-A*02:01 worked out at 0.024 µM. Moreover, the Kd with HLA-A*01:01 (source organism: Homo sapiens), with HLA-A*03:01 [1] and with HLA-B*07:02 [2] was no less than 5 µM throughout.
For FLPSDFFPSV, the Kd with HLA-A*01:01 (source organism: Hepatitis B virus subtype adyw) is no less than 5 µM.
As to LLDVPTAAV, the values for the Kd with HLA-A*01:01 (source organism: Homo sapiens), in the experiment with HLA-A*03:01 [1] and with HLA-B*07:02 [2] were 4.31 µM, no less than 5 µM and no less than 5 µM, respectively.
Regarding YLLPAIVHI, the dissociation constant (Kd) with HLA-A*01:01 (source organism: Homo sapiens), with HLA-A*03:01 [1] and with HLA-B*07:02 [2] was no less than 5 µM each time.
With RVMAPRALL, the IC50 was determined as 0.905 µM with HLA-A*03:01 [3] and 0.0046 µM in the experiment with HLA-B*07:02 [4]. In addition, in the experiment with HLA-A*01:01 (source organism: Homo sapiens), the Kd is no less than 5 µM.
